How the values were obtained:
targeted GFP transcript = assay: Self-targeting miRNA circuit, GFP levels in stable 293-Flp-In cells (flow cytometry, time course); assay type: cell-based, human; settings: 1.5 mM theophylline for over a week; compared to th1′
Description: Ligand-responsive miRNAs can regulate genes in trans through RISC targeting and in cis through Drosha cleavage. A control system based on combining both modes of regulation into ‘self-targeting miRNAs’ may offer tighter regulation while still operating within the 3′ UTR of the transgene encoding transcript. We developed a dual-acting miRNA circuit based on the insertion of ligand-responsive miRNAs or miRNA clusters into the 3′ UTR of a targeted GFP transcript (FIG. 6A), where ligand control of Drosha cleavage is expected to impact direct destabilization of the cleaved transcript and subsequent RISC-mediated inactivation of other target transcripts. The resulting constructs were stably integrated into 293-Flp-In cells to ensure consistent expression for all constructs. […]
Stable transfection of 293-Flp-In cell lines was performed using the Flp-In recombinase system (Invitrogen) according to the manufacturer's instructions to generate isogenic stable cell lines. Integrants were selected using 200 μg/ml hygromycin B (Invitrogen), whereas stable cell lines were maintained in 50 μg/ml hygromycin B. The procedure described above for the fluorescence expression analysis of transiently transfected cell populations was used to analyze the stable cell lines with notable exceptions. […]

[1] = test system: immunopurified Drosha complex; assay: In vitro Drosha cleavage assay; assay type: biochemical
Protocol: We performed in vitro Drosha cleavage assays that mimic the first step in miRNA biogenesis to examine the relationship between bulge size and Drosha processing. RNAs with varying bulge sizes in the basal segments (FIG. 1B) were transcribed in vitro, incubated with immunopurified Drosha, and resolved by PAGE (FIG. 1C). […] Such abortive processing has been previously observed in vitro and attributed to DGCR8 recognition of the terminal loop instead of the miRNA basal segments (Han et al., 2006).
Internally radiolabeled RNAs were transcribed in vitro from an annealed template containing the T7 promoter (5′-[…]-3′, where G is the first transcribed nucleotide) using the Ampliscribe T7 transcription kit (Epicentre) according to the manufacturer's instructions with [α-32P]-GTP. Following transcription and DNase treatment, the transcription product was purified through a NucAway clean-up column (Ambion) according to the manufacturer's instructions and gel-purified by PAGE.
In vitro assays were conducted as described previously (Lee
and Kim, 2007). Briefly, the Drosha complex was immunopurified from 293T cells transiently transfected with pCK-Drosha-FLAG and pCK-DGCR8-FLAG (9:1 mass ratio). […]

[2] = test system: transcript encoding DsRed-Express; assay: DsRed-Express levels, regulation in cis (transient transfection, flow cytometry); assay type: cell-based, human
Description: To assess the capacity for ligand-responsive miRNAs to regulate gene expression in cis, we measured expression levels for the transcripts harboring the ligand-responsive miRNAs targeting GFP and La. DsRed-Express levels were quantified by flow cytometry under similar conditions as the trans-targeted gene silencing experiments. […] Transcript analysis confirmed that the predominant regulatory mechanism of ligand-responsive miRNAs in cis is mRNA destabilization (FIG. 10).
293 and Flp-In-293 cells were maintained in DMEM supplemented with 10% FBS at 37° C. in a 5% CO2—humidified incubator. Transient transfections were conducted with Fugene 6 (Roche) according to the manufacturer's instructions one day after seeding. Immediately prior to transfection, the media was supplemented with the appropriate ligand at the specified concentration. […] Three days post-transfection, the cells were trypsinized and subjected to flow cytometry analysis on a Cell Lab Quanta SC MPL (Beckman Coulter) and the resulting data was analyzed using the Flowjo software (Tree Star). […] GFP and DsRed fluorescence of viable cells were measured through a 525 nm and […] band pass filter, respectively, after excitation with a 488 nm laser. […] GFP levels were calculated as the median fluorescence of the transfected population divided by that of the untransfected population (Beisel et al., 2008). […]

[3] = test system: transcript encoding the green fluorescent protein (GFP) in HEK 293 cells stably expressing GFP; assay: Cell culture assay for miRNA activity (GFP silencing, transient transfection, flow cytometry); assay type: cell-based, human
Description: To examine the relationship between bulge size in the basal segments and gene silencing, we developed a general cell culture assay for miRNA activity (FIG. 1D). miRNAs designed to target a transcript encoding the green fluorescent protein (GFP) were inserted into the 3′ untranslated region (UTR) of a constitutively-expressed transcript encoding the fluorescent protein DsRed-Express. Plasmid DNA encoding the DsRed-Express construct was transfected into HEK 293 cells stably expressing GFP. The level of miRNA-mediated gene silencing was determined by flow cytometry analysis, where DsRed-Express levels were used to distinguish between transfected and untransfected cells. Using the cell culture assay, miRNAs with the same bulges as in the in vitro experiments were tested for silencing efficiency. […] Therefore, proper Drosha processing and gene silencing correlate with the size of the bulge in the miRNA basal segments.
293 and Flp-In-293 cells were maintained in DMEM supplemented with 10% FBS at 37° C. in a 5% CO2—humidified incubator. Transient transfections were conducted with Fugene 6 (Roche) according to the manufacturer's instructions one day after seeding. Immediately prior to transfection, the media was supplemented with the appropriate ligand at the specified concentration. Ligand concentrations were selected to maximize the regulatory response without severely compromising cell viability over the course of the transient assays. The media was replaced two days post-transfection. Three days post-transfection, the cells were trypsinized and subjected to flow cytometry analysis on a Cell Lab Quanta SC MPL (Beckman Coulter) and the resulting data was analyzed using the Flowjo software (Tree Star). Cells were initially gated for viability by electronic volume and side scatter. GFP and DsRed fluorescence of viable cells were measured through a 525 nm and […] band pass filter, respectively, after excitation with a 488 nm laser. Moderate to high DsRed levels served as a transfection control to gate between transfected and untransfected cells. Transfected cells could be distinguished from untransfected cells with this method even when four miRNAs were present in the 3′ UTR of the DsRed-Express encoding transcript (data not shown). GFP levels were calculated as the median fluorescence of the transfected population divided by that of the untransfected population (Beisel et al., 2008). This normalization approach corrected for the bias from pleiotropic effects associated with each small molecule. All ratios were normalized such that the value for DsRed-Express lacking a miRNA under the same conditions was set to 100%.

B1: th1: SEQ ID NO. 23; GFP-targeting miRNA with a theophylline aptamer in the basal segments (nucleic acid)
chain: TCTAGAACGGGTCCTGATACCAGCGTGAGCGAGCACAAGCTGGAGTACAACTATAGTGAAGCCACAGATGTATAGTTGTACTCCAGCTTGTGCCCGCCTACGCCCTTGGCAGCAGGGCCC
modifications: expressed or natural sequence
notes: 23; GFP-targeting miRNA with a theophylline aptamer in the basal segments
GFP silencing and dynamic range of self-targeting versus non-targeting miRNAs (targeted GFP transcript): improved both GFP silencing and the dynamic range
size of primary products of Drosha processing ([1]; in vitro transcribed miRNA, PAGE): ~61 nts
effect of theophylline on Drosha processing ([1]; presence or absence of 5 mM theophylline): theophylline inhibited proper processing
ligand regulation of DsRed-Express in cis ([2]; 5 mM theophylline): two copies were sufficient to introduce ligand regulation
DsRed silencing in cis versus copy number ([2]; one to four copies, transient transfection): DsRed silencing increased with increasing copy number
GFP silencing ([3]; single copy, absence of ligand): silence GFP with comparable strength
response of GFP levels to theophylline ([3]; transient transfection with varying theophylline concentrations): theophylline dose-dependent increase in GFP expression levels
GFP silencing and theophylline response of two miRNA copies, adjacent placement ([3]; two copies, shortest spacer (2 nt), 5 mM theophylline): compromised both silencing and the response to theophylline
GFP silencing and theophylline response of two miRNA copies, increased spacer length ([3]; two copies, spacer up to 112 nt, 5 mM theophylline, versus single copy): restored and even exceeded the silencing activity and theophylline-dependence from a single copy
GFP silencing versus miRNA copy number ([3]; up to four copies separated by 112 nt spacer): GFP silencing increased with each additional copy
dynamic range (ratio of GFP levels in the presence or absence of theophylline) versus copy number ([3]; up to four copies, 112 nt spacer, 5 mM theophylline): increased silencing and the dynamic range

From US9145555B2, “Integrated—ligand-responsive microRNAs” (California Institute of Technology, priority 2009, dated 2015)
